Data published in patent publication US20030092091A1 (GlaxoSmithKline, published 2003).
Numbering of substitutions follows the chain as printed.

B1: 2E2 mAb (antibody, from another filing, V domains shown)
VH: VQLKRASGPGLVAPSQSLSITCTVSGFSLTIYGAHWVRQPPGKGLEWLGVIWAGGSTNYNSALMSRLSISKDNSKSQVFLKINSLQTDDTALYYCARDGSSPYYYSMEYWGQGTSVTVSS
VL: QIILTQSPAIMSASPGEKVSITCSATSSVSYMHWFQQKPGTSPKLWIYSTSNLASGVPVRFSGSGSGTSYSLTISRMEAEDAATYYCQQRSSYPFTFGSGTKLEIKA
B2: monoclonal antibody 2C4 (antibody, IgG1, V domains shown)
VH: QVQLKESGPGLVAPSQSLSITCTVSGFSLIYGAHWVRQPPGKGLEWLGVIWAGGSTNYNSALMSRLSISKDNSKSQVFLKINSLQTDDTALYYCARDGSSPYYYSMEYWGQGTSVTVSS
VL: B1 VL with Q1E, A107R
notes: also called mAb 2C4

Tests used:
[1] = molecular target: SAF-2 (Siglec-8 / Siglec-8L) on the cell surface (human) (UniProt Q9NYZ4); assay: cell-based or functional assay
Chain of SAF-2 (Siglec-8 / Siglec-8L) on the cell surface (human) (Q9NYZ4 17-499): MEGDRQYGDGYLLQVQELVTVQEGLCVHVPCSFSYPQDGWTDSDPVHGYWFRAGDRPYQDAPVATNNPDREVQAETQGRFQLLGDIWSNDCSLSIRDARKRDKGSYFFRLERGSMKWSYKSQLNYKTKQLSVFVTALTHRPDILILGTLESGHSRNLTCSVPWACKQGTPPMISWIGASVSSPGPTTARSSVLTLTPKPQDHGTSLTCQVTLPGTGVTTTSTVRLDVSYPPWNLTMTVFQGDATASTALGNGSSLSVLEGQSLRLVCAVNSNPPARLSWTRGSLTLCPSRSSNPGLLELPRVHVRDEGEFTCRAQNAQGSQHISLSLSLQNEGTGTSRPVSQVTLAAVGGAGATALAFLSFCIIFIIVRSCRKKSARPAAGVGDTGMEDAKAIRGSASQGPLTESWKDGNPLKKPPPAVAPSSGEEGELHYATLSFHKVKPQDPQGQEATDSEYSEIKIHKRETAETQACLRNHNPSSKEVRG

[2] = molecular target: T1, SAF-2 polypeptide (extracellular domain of sialoadhesin factor-2, released from SAF-2/Fc by Factor Xa … (human, UniProt Q9NYZ4 17-363)); assay: BIAcore SPR. The mAb was captured on a rabbit anti-mouse IgG Fc surface and SAF-2 was injected as analyte.
T1 construct: extracellular domain; The BIAcore analyte is printed only as 'SAF-2 (diluted in HBS buffer)'; Residues left over from the cleavage site are not described; also called Siglec-8
T1 sequence (Q9NYZ4 17-363): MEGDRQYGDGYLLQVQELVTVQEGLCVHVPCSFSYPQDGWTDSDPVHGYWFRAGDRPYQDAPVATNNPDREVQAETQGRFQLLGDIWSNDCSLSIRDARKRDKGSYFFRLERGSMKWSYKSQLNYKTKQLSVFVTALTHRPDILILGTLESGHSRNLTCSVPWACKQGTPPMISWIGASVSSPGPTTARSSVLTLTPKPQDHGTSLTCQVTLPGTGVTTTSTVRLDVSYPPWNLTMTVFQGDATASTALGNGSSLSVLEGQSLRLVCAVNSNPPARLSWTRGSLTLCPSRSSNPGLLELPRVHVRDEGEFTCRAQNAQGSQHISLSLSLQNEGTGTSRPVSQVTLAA
Method: (§1) Kinetic data was evaluated using relationships described previously (Karlsson, et al. (1991) J. Immunol. Meth. 145:229). The mAb (diluted in HBS buffer, 10 mM HEPES, 150 mM NaCl, 0.01% Tween-20, pH 7.4) was injected over a rabbit anti-mouse IgG Fe surface, followed by buffer flow, and the RU was recorded. SAF-2 (diluted in HBS buffer) was then injected for 180 seconds, followed by a buffer flow for 300 seconds, and the RU was recorded. The sensor chip surface was regenerated by an injection of 0.1 M phosphoric acid. The on-rates (Kₐ) and off-rates (Kd) of binding were calculated using BIAcore (Uppswala, Sweden) software.

[3] = molecular target: T1, SAF-2 polypeptide (extracellular domain …); assay: BIAcore SPR. The mAb was captured on a rabbit anti-mouse IgG Fc surface and SAF-2 was injected as analyte. KD was calculated from the rates.
Method: as §1

| Binder | apoptosis (annexin-V) of IL-5-primed eosinophils, 2E2 mAb alone [1] [%] | apoptosis (annexin-V) of unprimed eosinophils, 2E2 and secondary Ab [1] [%] | eosinophil death at 48-72 h of culture (erythrosin-B dye exclusion), 2E2 plus secondary polyclonal Ab [1] [%] | eosinophil death at 24 h of culture (erythrosin-B dye exclusion), 2E2 plus secondary polyclonal Ab [1] [%] | koff [2] [s⁻¹] | kon [2] [M⁻¹ s⁻¹] | Kd [3] [nM] |
| --- | --- | --- | --- | --- | --- | --- | --- |
| B1 | 69 | 72 | > 90 | 68 | – | – | – |
| B2 | – | – | – | – | 4.3e-05 | 220000 | 0.2 |
